In the supplement of paper PMC10724198:
± gives the standard deviation of the averaged measurements.
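Also: PSI is a weighted mean of sequencing reads over stability bins, variants kept only with over 10 reads, mCherry proximal and sfGFP distal, peptide attached via GGGS linker.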

Each sequence was assayed on Saccharomyces cerevisiae (assay: protein stability index of tFT-peptide fusion (C-terminal peptide) (PSI (0-1 scale)); higher = more stable (slower turnover)). Details: genetic background: das1 deletion; temperature: 37 C.
Description: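 MPS profiling in S. cerevisiae of the tFT-X12 degron library: putative degron peptides plus stable controls, 12 aa, fused to the C-terminus of a sfGFP-mCherry timer. Cells are FACS-sorted into 8 mCherry/sfGFP bins and deep-sequenced. PSI runs from 0 (unstable) to 1 (stable). Backgrounds are wild type, das1Δ and doa10Δ at 30 °C, and wild type, das1Δ, cdc34-1 and cdc53-1 at 37 °C; 2-3 technical replicates each.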
For PPTHDSPVWSPS, the protein stability index was 0.7438 ± 0.0025. For PPVAYVCHLYVT, the protein stability index was 0.6058 ± 0.0045. Sequence PPVLAPHLCFPP has a protein stability index of 0.739 ± 0.015. Sequence PRTTHTPLLIAS has a protein stability index of 0.662 ± 0.03. PSFLAIRVCLLV was tested, and the protein stability index was 0.211 ± 0.0098. PSPRLSLPPRLP showed a protein stability index of 0.731 ± 0.017. PSPRRPPRSRFP gave a protein stability index of 0.7355 ± 0.0031. In the case of PSPYSLSPYFLV, the protein stability index is reported as 0.7674 ± 0.0074. PSRLSFALLFHL was tested, and the protein stability index was 0.7268 ± 0.0049. Work on PTAGFFGLLVLV yielded a protein stability index of 0.439 ± 0.005. Work on PVHARYCSLKWA yielded a protein stability index of 0.7389 ± 0.0042. Sequence PWGVGLACLFLL has a protein stability index of 0.736 ± 0.022. For PYPSVIFFLHVY, the protein stability index was 0.56 ± 0.0098. For QIGSMLGVQGVG, the protein stability index was 0.516 ± 0.0073. In the case of QILVSYSFLYFF, the protein stability index is reported as 0.609 ± 0.023. For QVVWAVPRICLV, the protein stability index was 0.579 ± 0.0091. In the case of QWRSWSFATLVT, the protein stability index is reported as 0.424 ± 0.0064. RCRLYLNVVVLC was tested, and the protein stability index was 0.413 ± 0.02. With RCTFSFSFPFVL the protein stability index was 0.768 ± 0.0096. Work on RFCRVERAILLR yielded a protein stability index of 0.4436 ± 0.0035. With RFFKMREAIRIS the protein stability index was 0.59 ± 0.052. Work on RFPFFLPFIAFL yielded a protein stability index of 0.637 ± 0.0021. Work on RGCFVLRKTHLL yielded a protein stability index of 0.7323 ± 0.0044. RGVRALFLLLSF was tested, and the protein stability index was 0.575 ± 0.011. RHAHPLTAQLPL gave a protein stability index of 0.747 ± 0.0096. Sequence RHIPSIILAHVV has a protein stability index of 0.707 ± 0.033. In the case of RICACHGIRFIP, the protein stability index is reported as 0.774 ± 0.051. RIFWMFFSQHIG was tested, and the protein stability index was 0.7247 ± 0.00085. Sequence RLCLLLCCRLWL has a protein stability index of 0.565 ± 0.012. RLFVRIQLSLLF was tested, and the protein stability index was 0.398 ± 0.0092. RLICFFSMYLRF was tested, and the protein stability index was 0.395 ± 0.006. In the case of RLLFFVFLSSRF, the protein stability index is reported as 0.472 ± 0.0093. RLRCRVLQWVWG showed a protein stability index of 0.6562 ± 0.0012. RLSTTTTKQFIH showed a protein stability index of 0.753 ± 0.021. RMTFFGFTVKML showed a protein stability index of 0.75 ± 0.011. Work on RNFSFTVICLAM yielded a protein stability index of 0.549 ± 0.0093. Sequence RPCRPLIAAFVF has a protein stability index of 0.5628 ± 0.0049. For RQILYYRERFIP, the protein stability index was 0.694 ± 0.027. With RRIKNRRLKQVT the protein stability index was 0.722 ± 0.0067. Work on RRQLVLVLSWVI yielded a protein stability index of 0.507 ± 0.019. RRQQNHRQLCAT was tested, and the protein stability index was 0.7322 ± 0.0065. Sequence RRRNQAAHLYSH has a protein stability index of 0.708 ± 0.0077. RSFGGRPWVLFL gave a protein stability index of 0.7549 ± 0.0052. RTRVRKTRIRTC showed a protein stability index of 0.724 ± 0.015. With RVFLVLFLILSG the protein stability index was 0.469 ± 0.0087. In the case of RVIRHLRRISNF, the protein stability index is reported as 0.705 ± 0.046. Sequence RVLSLLGCFVVF has a protein stability index of 0.585 ± 0.018. In the case of RVLVEIVYFKVF, the protein stability index is reported as 0.474 ± 0.012. Work on RVRNSQVVAVVG yielded a protein stability index of 0.586 ± 0.0092. RVTEYHTKYKIV gave a protein stability index of 0.728 ± 0.077. For RWAAAVPLLVVG, the protein stability index was 0.105 ± 0.0046. RWRYHAYVITIL showed a protein stability index of 0.506 ± 0.0054. In the case of RYKIEKKKLMNN, the protein stability index is reported as 0.7361 ± 0.003. SEVMVGLRLTLN was tested, and the protein stability index was 0.7149 ± 0.0029. Work on SFRIWLFRFFFV yielded a protein stability index of 0.651 ± 0.008. SFSFCCLLASFV was tested, and the protein stability index was 0.617 ± 0.014. SFSIPILLLAFP was tested, and the protein stability index was 0.409 ± 0.011. SFYAGLVVGGVG showed a protein stability index of 0.6 ± 0.0064. SGLVAFSVCCRG gave a protein stability index of 0.5177 ± 0.0048. SGLVHVLILGAC was tested, and the protein stability index was 0.5529 ± 0.0051. Sequence SGRGFSFVLCTV has a protein stability index of 0.58 ± 0.017. Sequence SGRKNQRILGLY has a protein stability index of 0.731 ± 0.023. Sequence SLAPPPPLLILR has a protein stability index of 0.479 ± 0.049. With SLARPGLCFVIA the protein stability index was 0.569 ± 0.011. In the case of SLASPPPLLILR, the protein stability index is reported as 0.436 ± 0.038. SLFFCIPIHSVF showed a protein stability index of 0.5855 ± 0.0036. With SLIVLRSIAVLD the protein stability index was 0.543 ± 0.038. Sequence SLRYRFLSFFFL has a protein stability index of 0.7089 ± 0.0057. SLSFLRPLLLIF showed a protein stability index of 0.118 ± 0.0077. In the case of SLTNYQRLIHVC, the protein stability index is reported as 0.361 ± 0.014. In the case of SLVLLVASVTGS, the protein stability index is reported as 0.5781 ± 0.0054. For SMFFLFFFFFFF, the protein stability index was 0.444 ± 0.034. For SNFQLLPLFKNI, the protein stability index was 0.799 ± 0.027. In the case of SPRGVVIAFLVC, the protein stability index is reported as 0.5766 ± 0.0025. In the case of SQIALIQYFHIL, the protein stability index is reported as 0.704 ± 0.016. SQVILFFLSLCR gave a protein stability index of 0.619 ± 0.0082. SRICRTIIQLKQ was tested, and the protein stability index was 0.689 ± 0.033. SRLVSRLGLYLS was tested, and the protein stability index was 0.728 ± 0.035.

Same assay, conditions: genetic background: doa10 deletion; temperature: 30 C
For PPTHDSPVWSPS, the protein stability index was 0.667 ± 0.017. Work on PPVAYVCHLYVT yielded a protein stability index of 0.309 ± 0.031. In the case of PPVLAPHLCFPP, the protein stability index is reported as 0.673 ± 0.028. PRTTHTPLLIAS showed a protein stability index of 0.177 ± 0.012. In the case of PSFLAIRVCLLV, the protein stability index is reported as 0.0853 ± 0.02. PSPRLSLPPRLP was tested, and the protein stability index was 0.71 ± 0.037. PSPRRPPRSRFP showed a protein stability index of 0.672 ± 0.03. Work on PSPYSLSPYFLV yielded a protein stability index of 0.255 ± 0.013. With PSRLSFALLFHL the protein stability index was 0.395 ± 0.025. For PTAGFFGLLVLV, the protein stability index was 0.279 ± 0.0034. In the case of PVHARYCSLKWA, the protein stability index is reported as 0.237 ± 0.036. PWGVGLACLFLL was tested, and the protein stability index was 0.0882 ± 0.025. With PYPSVIFFLHVY the protein stability index was 0.15851 ± 3.4e-05. With QIGSMLGVQGVG the protein stability index was 0.495 ± 0.014. With QILVSYSFLYFF the protein stability index was 0.3549 ± 0.0034. QVVWAVPRICLV gave a protein stability index of 0.335 ± 0.015. Sequence QWRSWSFATLVT has a protein stability index of 0.22 ± 0.0082. For RCRLYLNVVVLC, the protein stability index was 0.129 ± 0.01. RCTFSFSFPFVL was tested, and the protein stability index was 0.5998 ± 0.0024. For RFCRVERAILLR, the protein stability index was 0.622 ± 0.039. RFFKMREAIRIS showed a protein stability index of 0.205 ± 0.0066. RFPFFLPFIAFL was tested, and the protein stability index was 0.306 ± 0.013. RGCFVLRKTHLL was tested, and the protein stability index was 0.126 ± 0.0097. Work on RGVRALFLLLSF yielded a protein stability index of 0.264 ± 0.0047. With RHAHPLTAQLPL the protein stability index was 0.694 ± 0.021. In the case of RHIPSIILAHVV, the protein stability index is reported as 0.172 ± 0.019. RICACHGIRFIP showed a protein stability index of 0.3558 ± 0.0018. Sequence RIFWMFFSQHIG has a protein stability index of 0.106 ± 0.0093. RLCLLLCCRLWL gave a protein stability index of 0.461 ± 0.022. For RLFVRIQLSLLF, the protein stability index was 0.33 ± 0.0035. Sequence RLICFFSMYLRF has a protein stability index of 0.614 ± 0.029. For RLLFFVFLSSRF, the protein stability index was 0.489 ± 0.04. Work on RLRCRVLQWVWG yielded a protein stability index of 0.352 ± 0.0078. RLSTTTTKQFIH gave a protein stability index of 0.302 ± 0.0053. RMTFFGFTVKML gave a protein stability index of 0.196 ± 0.036. Sequence RNFSFTVICLAM has a protein stability index of 0.472 ± 0.026. RPCRPLIAAFVF showed a protein stability index of 0.374 ± 0.012. In the case of RQILYYRERFIP, the protein stability index is reported as 0.169 ± 0.012. Work on RRIKNRRLKQVT yielded a protein stability index of 0.214 ± 0.0054. With RRQLVLVLSWVI the protein stability index was 0.299 ± 0.013. With RRQQNHRQLCAT the protein stability index was 0.21 ± 0.018. RRRNQAAHLYSH gave a protein stability index of 0.139 ± 0.022. For RSFGGRPWVLFL, the protein stability index was 0.106 ± 0.014. RTRVRKTRIRTC gave a protein stability index of 0.234 ± 0.02. Sequence RVFLVLFLILSG has a protein stability index of 0.262 ± 0.0092. In the case of RVIRHLRRISNF, the protein stability index is reported as 0.142 ± 0.009. Sequence RVLSLLGCFVVF has a protein stability index of 0.485 ± 0.017. RVLVEIVYFKVF was tested, and the protein stability index was 0.037 ± 0.014. RVRNSQVVAVVG was tested, and the protein stability index was 0.3291 ± 0.0023. RVTEYHTKYKIV was tested, and the protein stability index was 0.0697 ± 0.0072. For RWAAAVPLLVVG, the protein stability index was 0.111 ± 0.018. RWRYHAYVITIL gave a protein stability index of 0.118 ± 0.0098. RYKIEKKKLMNN showed a protein stability index of 0.182 ± 0.0036. Sequence SEVMVGLRLTLN has a protein stability index of 0.282 ± 0.0065. For SFRIWLFRFFFV, the protein stability index was 0.364 ± 0.025. SFSFCCLLASFV gave a protein stability index of 0.444 ± 0.025. For SFSIPILLLAFP, the protein stability index was 0.451 ± 0.026. With SFYAGLVVGGVG the protein stability index was 0.525 ± 0.001. With SGLVAFSVCCRG the protein stability index was 0.2625 ± 0.0015. SGLVHVLILGAC was tested, and the protein stability index was 0.313 ± 0.0048. SGRGFSFVLCTV gave a protein stability index of 0.307 ± 0.013. For SGRKNQRILGLY, the protein stability index was 0.199 ± 0.029. SLAPPPPLLILR was tested, and the protein stability index was 0.605 ± 0.0019. SLARPGLCFVIA gave a protein stability index of 0.311 ± 0.019. SLASPPPLLILR showed a protein stability index of 0.60698 ± 1.5e-05. SLFFCIPIHSVF gave a protein stability index of 0.398 ± 0.012. With SLIVLRSIAVLD the protein stability index was 0.3743 ± 0.0022. With SLRYRFLSFFFL the protein stability index was 0.189 ± 0.015. For SLSFLRPLLLIF, the protein stability index was 0.131 ± 0.0095. Work on SLTNYQRLIHVC yielded a protein stability index of 0.0969 ± 0.0057. Work on SLVLLVASVTGS yielded a protein stability index of 0.347 ± 0.01. Work on SMFFLFFFFFFF yielded a protein stability index of 0.432 ± 0.028. Work on SNFQLLPLFKNI yielded a protein stability index of 0.182 ± 0.0062. SPRGVVIAFLVC gave a protein stability index of 0.11 ± 0.014. SQIALIQYFHIL showed a protein stability index of 0.0937 ± 0.022. For SQVILFFLSLCR, the protein stability index was 0.485 ± 0.011. Work on SRICRTIIQLKQ yielded a protein stability index of 0.107 ± 0.0018. Work on SRLVSRLGLYLS yielded a protein stability index of 0.214 ± 0.0099.
